Assay results from patent US20240262893A1.
Where two headings read alike, the source gives them in different places.

B1: SKM ultralong CDR3 chimeric bovine-human IgG1 antibody (antibody)
VH: QVQLRESGPSLVKPSQTLSLTCTASGFSLSDKAVGWVRQAPGKALEWLGSIDTGGNTGYNPGLKSRLSITKDNSKSQVSLSVSSVTTEDSATYYCTTVHQETLRSCPDGYIDNSGCTADWGCAALDCWRRRFGYHSTDPSHYTGATYIYTYSLHIDAWGQGLLVTVSS
VL: QAVLNQPSSVSGSLGQRVSITCSGSSSNVGNGYVSWYQLIPGSAPRTLIYGDTSRASGVPDRFSGSRSGNTATLTISSLQAEDEADYFCASAEDSSSNAVFGSGTTLTVL
B2: SKD ultralong CDR3 chimeric bovine-human IgG1 antibody (antibody)
VH: QVQLRESGPSLVKPSQTLSLTCTASGFSLSDKAVGWVRQAPGKALEWLGSIDTGGNTGYNPGLKSRLSITKDNSKSQVSLSVSSVTTEDSATYYCTTVHQRTSEKRSCPGGSSRRYPSGASCDVSGGACACYVSNCRGVLCPTLNEIVAYTYEWHVDAWGQGLLVTVSS
VL: QAVLNQPSSVSGSLGQRVSITCSGSSSNVGNGYVSWYQLIPGSAPRTLIYGDTSRASGVPDRFSGSRSGNTATLTISSLQAEDEADYFCASAEDSSSNAVFGSGTTLTVL
B3: R4C1 ultralong CDR3 chimeric bovine-human IgG1 antibody (antibody)
VH: QVQLRESGPSLVKPSQTLSLTCTASGFSLSDKAVGWVRQAPGKPLEWLGSIDTAENTGYNPGLKSRLSITKDNSKSQVSLSVSSVTTEDSATYYCATVHQKTRKEKNCPDGYIYSSNTASGYDCGVWICRRVGSAFCSRTGDYTSPSEFDIYEFYVEGWGQGLLVTVSS
VL: QAVLNQPSSVSGSLGQRVSITCSGSSSNVGNGYVSWYQLIPGSAPRTLIYGDTSRASGVPDRFSGSRSGNTATLTISSLQAEDEADYFCASAEDSSSNAVFGSGTTLTVL
B4: R2D9 CDR3-knob (peptide)
peptide: ITHKTCPNGYNWFDRCCSWDGTCGDGCCSNRAWPSGNGRADSSIGETYGYEF
modifications: not checked
B5: purified R2G3 CDR3-knob (after enterokinase cleavage from trxA) (peptide)
peptide: EGDKTCPDGYEHTCGCIGGCGCKRSACIGALCCQASLGGWLSDGETYTYEF
modifications: not checked

Experiments:
[1] = molecular target: T1, SARS CoV-2 spike trimer protein from the parental Wuhan-Hu-1 isolate (extracellular domain, furin-cl (SARS-CoV-2 (Wuhan-Hu-1))); details: remark: other sources report otherwise
[2] = molecular target: T1, SARS CoV-2 spike trimer protein from …; assay: ELISA, spike protein coated, IgG detected with anti-human Fc-HRP; details: remark: other sources report otherwise
[3] = molecular target: T1, SARS CoV-2 spike trimer protein from …; details: remark: other sources report otherwise; remark: listed apart in the source
[4] = molecular target: recombinant stabilized spike protein derived from the beta strain (formerly described as the South A (SARS-CoV-2 (B.1.351)), P0DTC2); details: remark: other sources report otherwise
[5] = substrate: S protein of a SARS-CoV-2 delta lineage virus on pseudotyped virus (SARS-CoV-2 (delta lineage)); assay: cell-based or functional assay

Row | Binder | EC50 (read off the curve) [1] [nM] | EC50 [2] [nM] | EC50 (read off the curve) [3] [nM] | EC50 (read off the curve) [4] [nM] | pseudovirus neutralization, ng/mL (quantity not given) [5] [ng/mL]
1 | B1 | 0.2 | 0.19 | – | – | –
2 | B2 | – | 0.16 | – | – | –
3 | B3 | 0.3 | 0.2 | 0.03 | 0.3 | –
4 | B4 | – | – | – | – | 66.8
5 | B5 | – | – | – | – | 302
